Measurements as given in the supplement of paper PMC10724198.
± gives the standard deviation of the averaged measurements.

What was measured:
Saccharomyces cerevisiae [1] = assay: protein stability index of tFT-peptide fusion (C-terminal peptide) (PSI (0-1 scale)); higher = more stable (slower turnover)
Description: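 MPS profiling in S. cerevisiae of the tFT-X12 degron library: putative degron peptides plus stable controls, 12 aa, fused to the C-terminus of a sfGFP-mCherry timer. Cells are FACS-sorted into 8 mCherry/sfGFP bins and deep-sequenced. PSI runs from 0 (unstable) to 1 (stable). Backgrounds are wild type, das1Δ and doa10Δ at 30 °C, and wild type, das1Δ, cdc34-1 and cdc53-1 at 37 °C; 2-3 technical replicates each.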

Saccharomyces cerevisiae [2] = assay: as above; conditions: genetic background: wild type; temperature: 30 C
[3] = genetic background: cdc34-1, temperature: 37 C
[4] = genetic background: cdc53-1, temperature: 37 C
[5] = genetic background: das1 deletion, temperature: 30 C
[6] = genetic background: das1 deletion, temperature: 37 C
[7] = genetic background: doa10 deletion, temperature: 30 C
[8] = genetic background: wild type, temperature: 30 C
[9] = genetic background: wild type, temperature: 37 C
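Also: PSI is a weighted mean of sequencing reads over stability bins, variants kept only with over 10 reads, mCherry proximal and sfGFP distal, peptide attached via GGGS linker.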

| Sequence | protein stability index (Saccharomyces cerevisiae [1]; [3]) | protein stability index (Saccharomyces cerevisiae [1]; [4]) | protein stability index (Saccharomyces cerevisiae [1]; [5]) | protein stability index (Saccharomyces cerevisiae [1]; [6]) | protein stability index (Saccharomyces cerevisiae [1]; [7]) | protein stability index (Saccharomyces cerevisiae [1]; [8]) | protein stability index (Saccharomyces cerevisiae [1]; [9]) | protein stability index (Saccharomyces cerevisiae [2]) |
| --- | --- | --- | --- | --- | --- | --- | --- | --- |
| SLIVLRSIAVLD | 0.484 ± 0.015 | 0.505 ± 0.027 | 0.39 ± 0.02 | 0.543 ± 0.038 | 0.3743 ± 0.0022 | 0.392 ± 0.025 | 0.518 ± 0.013 | 0.449 ± 0.012 |
| SLRYRFLSFFFL | 0.615 ± 0.038 | 0.72 ± 0.018 | 0.636 ± 0.055 | 0.7089 ± 0.0057 | 0.189 ± 0.015 | 0.208 ± 0.019 | 0.338 ± 0.023 | 0.282 ± 0.026 |
| SLSFLRPLLLIF | 0.0444 ± 0.014 | 0.0385 ± 0.012 | 0.12 ± 0.028 | 0.118 ± 0.0077 | 0.131 ± 0.0095 | 0.0702 ± 0.013 | 0.0953 ± 0.019 | 0.102 ± 0.012 |
| SLTNYQRLIHVC | 0.147 ± 0.037 | 0.245 ± 0.064 | 0.223 ± 0.031 | 0.361 ± 0.014 | 0.0969 ± 0.0057 | 0.126 ± 0.036 | 0.0936 ± 0.0094 | 0.258 ± 0.13 |
| SLVLLVASVTGS | 0.507 ± 0.0053 | 0.546 ± 0.013 | 0.385 ± 0.024 | 0.5781 ± 0.0054 | 0.347 ± 0.01 | 0.384 ± 0.03 | 0.553 ± 0.017 | 0.464 ± 0.016 |
| SMFFLFFFFFFF | 0.396 ± 0.0071 | 0.356 ± 0.018 | 0.35 ± 0.042 | 0.444 ± 0.034 | 0.432 ± 0.028 | 0.328 ± 0.017 | 0.4177 ± 0.0027 | 0.36 ± 0.04 |
| SNFQLLPLFKNI | 0.791 ± 0.12 | 0.789 ± 0.0083 | 0.651 ± 0.044 | 0.799 ± 0.027 | 0.182 ± 0.0062 | 0.216 ± 0.041 | 0.546 ± 0.056 | 0.39 ± 0.032 |
| SPRGVVIAFLVC | 0.425 ± 0.016 | 0.569 ± 0.089 | 0.356 ± 0.028 | 0.5766 ± 0.0025 | 0.11 ± 0.014 | 0.124 ± 0.025 | 0.109 ± 0.0082 | 0.129 ± 0.057 |
| SQIALIQYFHIL | 0.408 ± 0.02 | 0.655 ± 0.017 | 0.594 ± 0.015 | 0.704 ± 0.016 | 0.0937 ± 0.022 | 0.1 ± 0.017 | 0.202 ± 0.029 | 0.101 ± 0.06 |
| SQVILFFLSLCR | 0.607 ± 0.024 | 0.654 ± 0.011 | 0.494 ± 0.024 | 0.619 ± 0.0082 | 0.485 ± 0.011 | 0.4977 ± 0.0029 | 0.61 ± 0.022 | 0.552 ± 0.08 |
| SRICRTIIQLKQ | 0.561 ± 0.025 | 0.681 ± 0.013 | 0.626 ± 0.029 | 0.689 ± 0.033 | 0.107 ± 0.0018 | 0.121 ± 0.022 | 0.266 ± 0.004 | 0.168 ± 0.0027 |
| SRLVSRLGLYLS | 0.656 ± 0.054 | 0.71 ± 0.0097 | 0.626 ± 0.013 | 0.728 ± 0.035 | 0.214 ± 0.0099 | 0.22 ± 0.022 | 0.475 ± 0.03 | 0.361 ± 0.02 |
| SRRRRLVSKFLA | 0.63 ± 0.043 | 0.7 ± 0.042 | 0.653 ± 0.027 | 0.729 ± 0.03 | 0.141 ± 0.019 | 0.161 ± 0.0082 | 0.3 ± 0.0063 | 0.223 ± 0.017 |
| SRRSIGAYLFVS | 0.693 ± 0.053 | 0.761 ± 0.029 | 0.635 ± 0.039 | 0.768 ± 0.031 | 0.178 ± 0.013 | 0.208 ± 0.018 | 0.411 ± 0.025 | 0.339 ± 0.026 |
| SRSFWHAIVFLA | 0.373 ± 0.043 | 0.589 ± 0.015 | 0.542 ± 0.026 | 0.649 ± 0.0067 | 0.0822 ± 0.036 | 0.0959 ± 0.028 | 0.0963 ± 0.018 | 0.122 ± 0.085 |
| SRWMWFDWLRRA | 0.644 ± 0.027 | 0.736 ± 0.028 | 0.686 ± 0.026 | 0.747 ± 0.029 | 0.281 ± 0.012 | 0.295 ± 0.0095 | 0.541 ± 0.0019 | 0.417 ± 0.065 |
| SSCFLLFRVVWR | 0.285 ± 0.01 | 0.321 ± 0.0088 | 0.257 ± 0.03 | 0.436 ± 0.0013 | 0.292 ± 0.005 | 0.244 ± 0.026 | 0.412 ± 0.016 | 0.367 ± 0.011 |
| SSFDFVVSLCIY | 0.501 ± 0.044 | 0.526 ± 0.052 | 0.39 ± 0.021 | 0.49 ± 0.015 | 0.347 ± 0.019 | 0.36 ± 0.013 | 0.476 ± 0.014 | 0.454 ± 0.041 |
| STSSVMVFLRMC | 0.5544 ± 0.0036 | 0.681 ± 0.038 | 0.601 ± 0.013 | 0.708 ± 0.036 | 0.14 ± 0.003 | 0.124 ± 0.01 | 0.161 ± 0.042 | 0.281 ± 0.057 |
| SVAGFFLLLLLS | 0.3561 ± 0.0034 | 0.397 ± 0.0096 | 0.305 ± 0.036 | 0.487 ± 0.02 | 0.191 ± 0.0079 | 0.193 ± 0.029 | 0.338 ± 0.0072 | 0.285 ± 0.012 |

| Sequence | protein stability index (Saccharomyces cerevisiae [1]; [3]) | protein stability index (Saccharomyces cerevisiae [1]; [4]) | protein stability index (Saccharomyces cerevisiae [1]; [5]) | protein stability index (Saccharomyces cerevisiae [1]; [6]) | protein stability index (Saccharomyces cerevisiae [1]; [7]) | protein stability index (Saccharomyces cerevisiae [1]; [8]) | protein stability index (Saccharomyces cerevisiae [1]; [9]) | protein stability index (Saccharomyces cerevisiae [2]) |
| --- | --- | --- | --- | --- | --- | --- | --- | --- |
| SVECLCLFVACR | 0.1923 ± 0.00067 | 0.254 ± 0.0049 | 0.193 ± 0.026 | 0.3432 ± 0.0011 | 0.155 ± 0.0075 | 0.184 ± 0.025 | 0.288 ± 0.0032 | 0.259 ± 0.013 |
| SVFGVRARFGSV | 0.766 ± 0.0082 | 0.803 ± 0.013 | 0.709 ± 0.018 | 0.781 ± 0.027 | 0.707 ± 0.046 | 0.724 ± 0.018 | 0.7738 ± 0.0016 | 0.756 ± 0.014 |
| SVFVVVVLVFWY | 0.221 ± 0.042 | 0.3 ± 0.039 | 0.22 ± 0.029 | 0.33 ± 0.024 | 0.211 ± 0.018 | 0.22 ± 0.029 | 0.316 ± 0.016 | 0.269 ± 0.0066 |
| SVIAYTKPLWFR | 0.4205 ± 0.0039 | 0.3736 ± 0.0027 | 0.351 ± 0.032 | 0.498 ± 0.009 | 0.658 ± 0.02 | 0.361 ± 0.016 | 0.486 ± 0.013 | 0.475 ± 0.0065 |
| SVLRCPVILLAY | 0.0423 ± 0.031 | 0.0232 ± 0.0025 | 0.0735 ± 0.036 | 0.0681 ± 0.008 | 0.0717 ± 0.0093 | 0.078 ± 0.017 | 0.0527 ± 0.02 | 0.0975 ± 0.012 |
| SVSFFSLCTSSL | 0.511 ± 0.033 | 0.596 ± 0.006 | 0.506 ± 0.023 | 0.541 ± 0.011 | 0.521 ± 0.033 | 0.507 ± 0.02 | 0.511 ± 0.021 | 0.487 ± 0.012 |
| SWTAYSYQWVFF | 0.407 ± 0.025 | 0.57 ± 0.0072 | 0.4972 ± 0.0028 | 0.577 ± 0.016 | 0.0469 ± 0.0093 | 0.0403 ± 0.018 | 0.215 ± 0.031 | 0.128 ± 0.014 |
| SWVSVLSELLAC | 0.224 ± 0.014 | 0.249 ± 0.017 | 0.251 ± 0.045 | 0.362 ± 0.0082 | 0.204 ± 0.0092 | 0.238 ± 0.025 | 0.2873 ± 0.0022 | 0.336 ± 0.022 |
| SYCFCCCVLFWG | 0.432 ± 0.019 | 0.517 ± 0.011 | 0.352 ± 0.028 | 0.559 ± 0.056 | 0.325 ± 0.011 | 0.357 ± 0.017 | 0.502 ± 0.018 | 0.407 ± 0.026 |
| SYFSVTLFFTVI | 0.281 ± 0.015 | 0.383 ± 0.0059 | 0.298 ± 0.032 | 0.419 ± 0.0015 | 0.252 ± 0.02 | 0.272 ± 0.016 | 0.386 ± 0.024 | 0.38872 ± 0.00027 |
| SYRFFLFLAVFV | 0.555 ± 0.014 | 0.554 ± 0.048 | 0.451 ± 0.034 | 0.574 ± 0.0017 | 0.442 ± 0.017 | 0.44 ± 0.012 | 0.5379 ± 0.0032 | 0.461 ± 0.021 |
| SYVFCYICGVQS | 0.607 ± 0.038 | 0.592 ± 0.025 | 0.411 ± 0.03 | 0.596 ± 0.015 | 0.338 ± 0.031 | 0.372 ± 0.018 | 0.552 ± 0.025 | 0.428 ± 0.06 |
| SYVRLDLFFFLG | 0.517 ± 0.069 | 0.591 ± 0.03 | 0.491 ± 0.012 | 0.5727 ± 0.0048 | 0.46 ± 0.038 | 0.472 ± 0.026 | 0.5357 ± 0.0037 | 0.568 ± 0.11 |
| TGVPNPSVAVMC | 0.639 ± 0.039 | 0.623 ± 0.023 | 0.457 ± 0.025 | 0.6489 ± 0.005 | 0.446 ± 0.019 | 0.475 ± 0.028 | 0.625 ± 0.0069 | 0.498 ± 0.098 |
| TIYGYEVTRKIG | 0.645 ± 0.068 | 0.78 ± 0.025 | 0.621 ± 0.019 | 0.732 ± 0.031 | 0.0795 ± 0.011 | 0.11 ± 0.021 | 0.145 ± 0.018 | 0.155 ± 0.0023 |
| TLLAFLIYLCFL | 0.496 ± 0.023 | 0.515 ± 0.061 | 0.403 ± 0.023 | 0.546 ± 0.0095 | 0.402 ± 0.017 | 0.365 ± 0.028 | 0.499 ± 0.043 | 0.416 ± 0.012 |
| TPVIPLIRVRDC | 0.59 ± 0.034 | 0.701 ± 0.012 | 0.568 ± 0.017 | 0.691 ± 0.021 | 0.171 ± 0.011 | 0.225 ± 0.02 | 0.456 ± 0.0093 | 0.29 ± 0.023 |
| TTGLLPSAYIWS | 0.758 ± 0.05 | 0.753 ± 0.024 | 0.6494 ± 0.0043 | 0.768 ± 0.033 | 0.677 ± 0.0094 | 0.667 ± 0.028 | 0.716 ± 0.04 | 0.762 ± 0.011 |
| TVWRRIRHACAH | 0.597 ± 0.023 | 0.683 ± 0.0099 | 0.596 ± 0.013 | 0.702 ± 0.035 | 0.193 ± 0.0082 | 0.226 ± 0.015 | 0.365 ± 0.0047 | 0.376 ± 0.038 |
